Source: the nanobody polyreactivity screen of Harvey et al. (2022)

Assay: yeast display, Sf9 membrane polyspecificity reagent, FACS + sequencing; frameworks hold sequencing errors
How it was run: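 A nanobody's polyreactivity label depends on the gate it was sorted from. Yeast display cells were stained with 10% biotinylated, detergent-solubilized Sf9 membrane reagent for 1 hour at 4 °C, enriched on streptavidin microbeads and sorted by FACS. The low and high (top ~1%) gates were set on anti-HA fluorescence for expression and streptavidin fluorescence for reagent binding.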

Row | Sequence | polyreactivity (PSR sort gate)
1 | QVQLVESGGGLVQAGGSLRLSCSASGRTFNKYAMGWYRQAPGKERELVAAISRSGGSTYYADSVKGRFTISRDNAKNTVYLQMNSLKPEDTAVYYCNAAYFGQHVGTGFDYWGQGTQVTVSS | high polyreactivity
2 | QVQLVESGGGLVQAGGSLRLSCSASGRTSVLYAMGWYRQAPGKEREFVAAITWNSGSTYYADSVKGRFTISRDHAKNTVYLQMISLKPEDTAVYYCNADYYFSSYRSTYDYWGQGTQVTVSS | low polyreactivity
3 | QVQLVESGGGLVQAGGSLRLSCSASGSIFAYYAMGWYRQAPGKERELVAAISKSAGSTYYADSVKGRFTISRDNAKNTVYLQMNSLKPEDTAVYYCAAVVLGRRLGFRGDYNYWGQGTQVTVSS | high polyreactivity
4 | QVQLVESGGGLVQAGGSLRLSCSASGSIFGYYGMGLYRQAPGKERELVATISWSGDSTNYADSVKGRFTISRDNAKNTVYLQMNSLKPEDTAVYYCAAEWHAGWGGWLRYRHYEYWGQRTQVTVSS | low polyreactivity
5 | QVQLVESGGGLVQAGGSLRLSCSASGSIFKRNAMGWYRQAPGKERELVAAITTRGGRTYYADSVKGRFTISRDNAKNTVYLQLNSLKPEDTAVYFCAVVPAAGSGGYGYSRYDYWGQGSQVTVSS | high polyreactivity
6 | QVQLVESGGGLVQAGGSLRLSCSASGSIFKYYTMGWYRQAPGKERELVASINGGGSTNYADSVKGRFTISRDNAKNTVYLQMNSLKPEDTAVYYCNARYWWQDGYWGQGTQLTVSS | high polyreactivity
7 | QVQLVESGGGLVQAGGSLRLSCSASGSIFPYYAMGWSRQAPGKERELVAAISRSGGSTYYADSVKGRFTISRDNAKNTVYLQMNSLKPEDTAGYYCAAVGGVRPQQHYYYRYDYWGQGTQVTVSS | high polyreactivity
8 | QVQLVESGGGLVQAGGSLRLSCSASGSIFSANVMGWYRQAPGKDRELVAAIRRGGTTYYADSVKGRFTISRDNAKNTVYLQMNSLKPEDNAVYYCATDGIFGSYLRFEVAYDYWGQGTQVTVSS | low polyreactivity
9 | QVQLVESGGGLVQAGGSLRLSCSASGSIFVWYDMGWYRQAPGKERELVATISLSGVSTYYADSVKGRFTISRDNAKNTVYLQMNSLKPEDTAVYYCNKDDPVDGPLYFRKYDYWGQGTQVTVSS | low polyreactivity
10 | QVQLVESGGGLVQAGGSLRLSCSASGSTFGDYAMRWYRQAPGKREFVAAISFSGGNTYYADSVKVRFTISRDNAKNTVYLQMNSLKPEDTAVYYCNADWDWFYSTGSLGFPDFYYWGQGTQVSVSS | low polyreactivity
11 | QVQLVESGGGLVQAGGSLRLSCSASGSTFGRYVMGWYRQPPGKERELVAAISKNAGSTYYADSVKGRFTISRDNAKNTVYLQMNSLKPEDTAVYYCNTVYYWYSPLNYWGQGTQVTVSS | high polyreactivity
12 | QVQLVESGGGLVQAGGSLRLSCSASGSTFHYNAMGWYRQAQGKERELVAYISWRGASKYDADSVKGRFTISRDNAKNTVYLQMSSMKTEDTAVFFFNAVLTSYWYNSYKSRGDYWGQGTLVTVSS | high polyreactivity
13 | QVQLVESGGGLVQAGGSLRLSCSASGSTFRVYAMGWYRQAPGKERELVAAISWSGGRTYYADSVKGRFTISRDNAKNTVYLQMNSLKPEDTAVYYCAADTYGRYDYWGQGTQVTVSS | high polyreactivity
14 | QVQLVESGGGLVQAGGSLRLSCSASGSTIPVYAMGWYRQPPGKERELVAAITGSGARTYYADSVKGRFTFSRDNAKNTVYLQMNSLKPEDTAVYYCAKRTVIAVYGFPYRYGMNYWGQGTQVTVSS | high polyreactivity
15 | QVQLVESGGGLVQAGGSLRLSCTASGIIFGTYAMGWYRQAPGKERELVAAISSSGVSTYYADSVKGRFTISRDNAKYTDYLQMNSLKPEDTAVYYCAAPLHYGYYYCGQGTQVTVSS | high polyreactivity
16 | QVQLVESGGGLVQAGGSLRLSCVASGLTQPSAIGWYRHAPGKERELVPRISWRGASTYYADSVKGRFTISRDTAKNNFYLQINSLKPEDTAVYYCAARSTIQRRGYYGYRVGRSEYGYWGQGTQVTVSS | low polyreactivity

Row | Sequence | polyreactivity (PSR sort gate)
17 | QVQLVESGGGLVQAGGSLRLSCVASGRIFLTYAMGWYRQAPGKERELVAAISYSGASTYYADSVKGRFTISRDNAKNTVYLQMNSLKPEDTAVYYCATERVGTPRMNYWGQGTQVTLSS | high polyreactivity
18 | QVQLVESGGGLVQAGGSLRLSCVASGRTFGNKAMGWYRQAPGKERELVAAITSGGSTNYADSVKGCFTISRDNAKNTVYLQMNSLKPEDTAVYYCAAKQYRAGGGYWGQGTQVTVSS | high polyreactivity
19 | QVQLVESGGGLVQAGGSLRLSCVASGRTFSRYAMGWYRQAPGKERELVAAISRRGGSTYYADSVKGRFTISRDNAKNTVYLQMNRLKPEDTAVNYCAAGYITCGSGNWVVTPYDYWGQGTQVTVSS | high polyreactivity
20 | QVQLVESGGGLVQAGGSLRLSCVPPDMGWYRQAPGKERELVAAISRGGITNYADSVKRRFTISRDNAKNTVYLQMNSLKPEDTAVYYCAAEYTYYSYGGNYDYWGQGTQVTVSS | low polyreactivity
21 | QVQLVESGGGLVQAGGSLRLSFAACGSIFTVYTMGWYRQAPGKERELVAAINSRGGTTYYADSVKGRFTISRDTAKNTVYLQMNSLKPEDTAVYYCAADWGYKDFGYWGQGTQVTVSS | high polyreactivity
22 | QVQLVESGGGLVQAGGSLRLSFAASGFTFTLYAMGLYRQAPGKEREFVAAITARGGSTYYADSVKGRFTISRDNAKNTVYLQMNSLKPEDTAVYYCNKEYGSRRYPYRYNYWGQGTQVTVSS | high polyreactivity
23 | QVQLVESGGGLVQAGGSLRLSFAASGITFGYYDMGWYRQAPGKERELVASISSGGNTNYADSVKGRFTISRDNAKNTVYLQMNSLKPEDTAVYYCNVRYWGFYDYDYWGQGTQVTVSS | low polyreactivity
24 | QVQLVESGGGLVQAGGSLRLSFAASGITFVRYAMGWYRQPPGKERALVAAISRSGTSTYSADSVKGRFTISRDNAKNTVYLQMNSLKPEDTAVYYCYVRRYDYWGQGTQVTVSS | high polyreactivity
25 | QVQLVESGGGLVQAGGSLRLSFAASGLIFGYYTMGWYTQAPGKERELVAAITGIADSTYYADSVKGRFTISRDNAKNTVYLQMNSLKPEDTAVYYCAADKYVAEYDYWGQGTQVTVSS | low polyreactivity
26 | QVQLVESGGGLVQAGGSLRLSFAASGLTFHYYAMGWYIQEPGKERELVAVISSGGSTYYAYSVKGRFTISRDNAKNTVYLQMNSLKPEDTAVYYCAALSSRTYKTGYYTYDYWGQGTQVTVSS | low polyreactivity
27 | QVQLVESGGGLVQAGGSLRLSFAASGRIFDVYAMGRYRQAPGKERELVAAITWSGGRTYYADSVKGRFTLSRDNAKNTVYLQMNSLKPEDTAVYYCAAEKPYVRGYLGTYDYWGQGTQVTVSS | low polyreactivity
28 | QVQLVESGGGLVQAGGSLRLSFAASGRIFGWYAIGGYRKAAGTEREVVAAISTSGVRTYYADSVKGRFTISRDNAKITVYLQMKSLKPEDTAVYYCAARYIRAYSRDYWGQGTQVTVSS | high polyreactivity
29 | QVQLVESGGGLVQAGGSLRLSFAASGRIFLYNTMGWYRQAPGKERELVARISWSGGSTKYADSVKGRFTISRDNAKNTVYLQMNSLKPEDTAVYYCNAGYFTEYNSWGQGTQVTVSS | high polyreactivity
30 | QVQLVESGGGLVQAGGSLRLSFAASGRTFHGYAMGWYRQAPGKERELVARINWSDGRTYYADSVKGRFTISRDNAKNTVYLQMNSLKPEDTAVYYCAADKTVSYAPAWYYYWGQGTHVTVSS | low polyreactivity
31 | QVQLVESGGGLVQAGGSLRLSFAASGSIFYRNSMGWYRQAPGKERELVAAISWSGASTYYADSVKGRFTISRDNAKNTVYLQMNSLKPEETAVYYCYAGKYAYLWLKLFDPKLDYWGQGTQVTVSS | low polyreactivity
